Numbering of substitutions follows the chain as printed.
B1: z2-XVT458-m1 (antibody, V domains shown)
VH: QVQLVQSGAEVKKPGASVKVSCKASGYTFTNFYIHWVRQAPGQGLEWMGSIYPNYGFTAYNQKFKDRVTMTVDTSTSTAYMELRSLRSDDTAVYYCARGYSYAMDYWGQGTTVTVSS
VL: DIQMTQSPSSVSASVGDRVTITCSASQGIWGDLNWYQQKPGKAPKLLIYHTSQLHSDVPSRFSGSGSGTDFTLTISSLQPEDFATYYCQGYSKDLLTFGGGTKLEIK
notes: IgG format; also called XVT458-z2-m1; XVT458-z2-ml
B2: z2-XVT458-m3 (antibody, V domains shown)
VH: B1 VH with S50R, F57I
VL: B1 VL with W30S, L54R
notes: IgG format; also called XVT458-z2-m3; XVT458-Z2-M3
B3: z2-XVT458-m6 (antibody, V domains shown)
VH: B1 VH with F57I
VL: B1 VL with W30S
notes: IgG format; also called XVT458-z2-m6; XVT458-Z2-m6

biological target: T1, hPD-1 Avi-Tag Biotin (AcroBiosystems, PD1-H82E4) (human, UniProt Q15116 25-167, biotin on Avi-Tag); test: IgG format; ELISA / SPR
T1 construct: bought; also called recombinant hPD-1
T1 sequence (Q15116 25-167 limits assumed): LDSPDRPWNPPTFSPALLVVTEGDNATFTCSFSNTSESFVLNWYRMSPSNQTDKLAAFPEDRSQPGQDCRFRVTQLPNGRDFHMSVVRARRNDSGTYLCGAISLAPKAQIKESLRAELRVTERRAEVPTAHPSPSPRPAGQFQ

Binding result, binds:
B1, B2, B3

biological target: T2, human PD-1 expressed on cells (human, UniProt Q15116 25-288); test: Retrogenix cell microarray, HEK293 cells
T2 construct: whole, on cells; also called hPD-1; PDCD1
T2 sequence (Q15116 25-288): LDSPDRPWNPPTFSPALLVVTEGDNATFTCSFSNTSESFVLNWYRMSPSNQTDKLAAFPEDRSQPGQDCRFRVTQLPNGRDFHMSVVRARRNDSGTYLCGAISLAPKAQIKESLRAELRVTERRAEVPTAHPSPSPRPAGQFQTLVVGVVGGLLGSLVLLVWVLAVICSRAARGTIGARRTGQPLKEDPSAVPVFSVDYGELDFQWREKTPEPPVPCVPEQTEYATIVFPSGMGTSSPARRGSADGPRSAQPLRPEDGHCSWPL

Binding result, binds:
B1, B2, B3

Source: patent EP4431525A1 (Anaveon AG, dated 2024)
